{
  "source": "patent US20180155451A1",
  "about": "(published 2018)",
  "data": [
    {"biological_target": "T1, FcγRIIb extracellular domain with C-terminal His tag (human, UniProt P31994 43-217)", "T1 construct": "extracellular domain; expressed in FreeStyle293 cells; analyte in the Biacore assay; also called FcgRIIb; 2b; not shown: His tag at the C terminus", "T1 sequence (looked up)": "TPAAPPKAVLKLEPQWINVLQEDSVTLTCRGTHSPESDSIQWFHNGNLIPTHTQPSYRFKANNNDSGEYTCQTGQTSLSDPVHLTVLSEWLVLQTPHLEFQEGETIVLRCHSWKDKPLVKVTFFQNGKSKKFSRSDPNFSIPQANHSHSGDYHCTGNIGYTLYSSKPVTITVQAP", "assay": "SPR (Biacore), captured antibody, FcγRIIb analyte; binding relative to GpH7-A5/GpH7-B3/GpL16-k0 = 100", "values": [
      {"binder": "GpH7-A5/GpH7-B3 variant K334_07I/GpL16-k0 (antibody, human IgG1, kappa, heterodimerized; mutation in the B3 H chain only; also called He Ab K334_07I) heavy 1: not shown heavy 2: not shown light: DIVMTQSPLSLPVTPGEPASISCQASESLVHSNRNTYLHWYLQKPGQSPQLLIYKVSNRFSGVPDRFSGSGSGTDFTLKISRVEAEDVGVYYCSQNTHVPPTFGQGTKVEIERTVAAPSVFIFPPSDEQLKSGTASVVCLLNNFYPREAKVQWKVDNALQSGNSQESVTEQDSKDSTYSLSSTLTLSKADYEKHKVYACEVTHQGLSSPVTKSFNRGEC", "He/Con_2b": "119 % of control"},
      {"binder": "GpH7-A5/GpH7-B3 variant K334_08L/GpL16-k0 (antibody, human IgG1, kappa, heterodimerized; mutation in the B3 H chain only; also called He Ab K334_08L) heavy 1: not shown heavy 2: not shown light: DIVMTQSPLSLPVTPGEPASISCQASESLVHSNRNTYLHWYLQKPGQSPQLLIYKVSNRFSGVPDRFSGSGSGTDFTLKISRVEAEDVGVYYCSQNTHVPPTFGQGTKVEIERTVAAPSVFIFPPSDEQLKSGTASVVCLLNNFYPREAKVQWKVDNALQSGNSQESVTEQDSKDSTYSLSSTLTLSKADYEKHKVYACEVTHQGLSSPVTKSFNRGEC", "He/Con_2b": "106 % of control"},
      {"binder": "GpH7-A5/GpH7-B3 variant K334_10E/GpL16-k0 (antibody, human IgG1, kappa, heterodimerized; mutation in the B3 H chain only; also called He Ab K334_10E) heavy 1: not shown heavy 2: not shown light: DIVMTQSPLSLPVTPGEPASISCQASESLVHSNRNTYLHWYLQKPGQSPQLLIYKVSNRFSGVPDRFSGSGSGTDFTLKISRVEAEDVGVYYCSQNTHVPPTFGQGTKVEIERTVAAPSVFIFPPSDEQLKSGTASVVCLLNNFYPREAKVQWKVDNALQSGNSQESVTEQDSKDSTYSLSSTLTLSKADYEKHKVYACEVTHQGLSSPVTKSFNRGEC", "He/Con_2b": "114 % of control"},
      {"binder": "GpH7-A5/GpH7-B3 variant K334_13S/GpL16-k0 (antibody, human IgG1, kappa, heterodimerized; mutation in the B3 H chain only; also called He Ab K334_13S) heavy 1: not shown heavy 2: not shown light: DIVMTQSPLSLPVTPGEPASISCQASESLVHSNRNTYLHWYLQKPGQSPQLLIYKVSNRFSGVPDRFSGSGSGTDFTLKISRVEAEDVGVYYCSQNTHVPPTFGQGTKVEIERTVAAPSVFIFPPSDEQLKSGTASVVCLLNNFYPREAKVQWKVDNALQSGNSQESVTEQDSKDSTYSLSSTLTLSKADYEKHKVYACEVTHQGLSSPVTKSFNRGEC", "He/Con_2b": "111 % of control"},
      {"binder": "GpH7-A5/GpH7-B3 variant K334_14T/GpL16-k0 (antibody, human IgG1, kappa, heterodimerized; mutation in the B3 H chain only; also called He Ab K334_14T) heavy 1: not shown heavy 2: not shown light: DIVMTQSPLSLPVTPGEPASISCQASESLVHSNRNTYLHWYLQKPGQSPQLLIYKVSNRFSGVPDRFSGSGSGTDFTLKISRVEAEDVGVYYCSQNTHVPPTFGQGTKVEIERTVAAPSVFIFPPSDEQLKSGTASVVCLLNNFYPREAKVQWKVDNALQSGNSQESVTEQDSKDSTYSLSSTLTLSKADYEKHKVYACEVTHQGLSSPVTKSFNRGEC", "He/Con_2b": "115 % of control"},
      {"binder": "GpH7-A5/GpH7-B3 variant L235_20W/GpL16-k0 (antibody, human IgG1, kappa, heterodimerized; mutation in the B3 H chain only; also called He Ab L235_20W) heavy 1: not shown heavy 2: not shown light: DIVMTQSPLSLPVTPGEPASISCQASESLVHSNRNTYLHWYLQKPGQSPQLLIYKVSNRFSGVPDRFSGSGSGTDFTLKISRVEAEDVGVYYCSQNTHVPPTFGQGTKVEIERTVAAPSVFIFPPSDEQLKSGTASVVCLLNNFYPREAKVQWKVDNALQSGNSQESVTEQDSKDSTYSLSSTLTLSKADYEKHKVYACEVTHQGLSSPVTKSFNRGEC", "He/Con_2b": "147 % of control"},
      {"binder": "GpH7-A5/GpH7-B3 variant L328_02A/GpL16-k0 (antibody, human IgG1, kappa, heterodimerized; mutation in the B3 H chain only; also called He Ab L328_02A) heavy 1: not shown heavy 2: not shown light: DIVMTQSPLSLPVTPGEPASISCQASESLVHSNRNTYLHWYLQKPGQSPQLLIYKVSNRFSGVPDRFSGSGSGTDFTLKISRVEAEDVGVYYCSQNTHVPPTFGQGTKVEIERTVAAPSVFIFPPSDEQLKSGTASVVCLLNNFYPREAKVQWKVDNALQSGNSQESVTEQDSKDSTYSLSSTLTLSKADYEKHKVYACEVTHQGLSSPVTKSFNRGEC", "He/Con_2b": "144 % of control"},
      {"binder": "GpH7-A5/GpH7-B3 variant L328_13S/GpL16-k0 (antibody, human IgG1, kappa, heterodimerized; mutation in the B3 H chain only; also called He Ab L328_13S) heavy 1: not shown heavy 2: not shown light: DIVMTQSPLSLPVTPGEPASISCQASESLVHSNRNTYLHWYLQKPGQSPQLLIYKVSNRFSGVPDRFSGSGSGTDFTLKISRVEAEDVGVYYCSQNTHVPPTFGQGTKVEIERTVAAPSVFIFPPSDEQLKSGTASVVCLLNNFYPREAKVQWKVDNALQSGNSQESVTEQDSKDSTYSLSSTLTLSKADYEKHKVYACEVTHQGLSSPVTKSFNRGEC", "He/Con_2b": "149 % of control"},
      {"binder": "GpH7-A5/GpH7-B3 variant P238_04F/GpL16-k0 (antibody, human IgG1, kappa, heterodimerized; mutation in the B3 H chain only; also called He Ab P238_04F) heavy 1: not shown heavy 2: not shown light: DIVMTQSPLSLPVTPGEPASISCQASESLVHSNRNTYLHWYLQKPGQSPQLLIYKVSNRFSGVPDRFSGSGSGTDFTLKISRVEAEDVGVYYCSQNTHVPPTFGQGTKVEIERTVAAPSVFIFPPSDEQLKSGTASVVCLLNNFYPREAKVQWKVDNALQSGNSQESVTEQDSKDSTYSLSSTLTLSKADYEKHKVYACEVTHQGLSSPVTKSFNRGEC", "He/Con_2b": "312 % of control"},
      {"binder": "GpH7-A5/GpH7-B3 variant P238_09D/GpL16-k0 (antibody, human IgG1, kappa, heterodimerized; mutation in the B3 H chain only; also called He Ab P238_09D) heavy 1: not shown heavy 2: not shown light: DIVMTQSPLSLPVTPGEPASISCQASESLVHSNRNTYLHWYLQKPGQSPQLLIYKVSNRFSGVPDRFSGSGSGTDFTLKISRVEAEDVGVYYCSQNTHVPPTFGQGTKVEIERTVAAPSVFIFPPSDEQLKSGTASVVCLLNNFYPREAKVQWKVDNALQSGNSQESVTEQDSKDSTYSLSSTLTLSKADYEKHKVYACEVTHQGLSSPVTKSFNRGEC", "He/Con_2b": "221 % of control"},
      {"binder": "GpH7-A5/GpH7-B3 variant P238_15Y/GpL16-k0 (antibody, human IgG1, kappa, heterodimerized; mutation in the B3 H chain only; also called He Ab P238_15Y) heavy 1: not shown heavy 2: not shown light: DIVMTQSPLSLPVTPGEPASISCQASESLVHSNRNTYLHWYLQKPGQSPQLLIYKVSNRFSGVPDRFSGSGSGTDFTLKISRVEAEDVGVYYCSQNTHVPPTFGQGTKVEIERTVAAPSVFIFPPSDEQLKSGTASVVCLLNNFYPREAKVQWKVDNALQSGNSQESVTEQDSKDSTYSLSSTLTLSKADYEKHKVYACEVTHQGLSSPVTKSFNRGEC", "He/Con_2b": "218 % of control"}
    ]}
  ]
}
